Results reported in publication PMC4571279 (Nature Communications, 2015).

Target: T1, recombinant MERS-CoV S1 protein (MERS-CoV, isolate EMC/2012 (strain of …, UniProt K0BRG7))
T1 construct: source: bought: Sino Biological Inc
Assay: ELISA
Conditions: both partners purified

| Binder | fold reduction (EC50) against wild-type m336 [fold] | fold reduction of binding affinity against m336 [fold] |
| --- | --- | --- |
|  (Fab, V domains shown, also called m336 F54L) VH: QVQLVQSGAEVKKPGSSVKVSCKASGGTFSSYAISWVRQAPGQGLEWMGGIIPILGTASYAQKFQGRVTITADKSTSTAYMELSSLRSEDTAVYYCARVGYCSSTSCNRGAFDIWGQGTMVTVSS VL: DIQLTQSPSSLSASVGDRVTITCRASQGIRNDLGWYQQKPGKAPKLLIYAASSLQSGVPSRFSGSGSGTDFTLTISSLQPEDFATYYCQQLNSYPLTFGGGTKVEIK | ≥ 1000 |  |
|  (Fab, V domains shown, also called m336 K73E) VH: QVQLVQSGAEVKKPGSSVKVSCKASGGTFSSYAISWVRQAPGQGLEWMGGIIPIFGTASYAQKFQGRVTITADESTSTAYMELSSLRSEDTAVYYCARVGYCSSTSCNRGAFDIWGQGTMVTVSS VL: DIQLTQSPSSLSASVGDRVTITCRASQGIRNDLGWYQQKPGKAPKLLIYAASSLQSGVPSRFSGSGSGTDFTLTISSLQPEDFATYYCQQLNSYPLTFGGGTKVEIK |  | ≥ 10 |
